B1: δ^NTD (N-terminal domain of the RNAP δ subunit) (protein)
chain: MGIKQYSQEELKEMALVEIAHELFEEHKKPVPFQELLNEIASLLGVKKEELGDRIAQFYTDLNIDGRFLALSDQTWGLRSWYPYDQLDEE
B2: RNAP β subunit (natural protein, B. subtilis (endogenous), UniProt P37870 1-1193, looked up)
chain: MTGQLVQYGRHRQRRSYARISEVLELPNLIEIQTSSYQWFLDEGLREMFQDISPIEDFTGNLSLEFIDYSLGEPKYPVEESKERDVTYSAPLRVKVRLINKETGEVKDQDVFMGDFPIMTDTGTFIINGAERVIVSQLVRSPSVYFSGKVDKNGKKGFTATVIPNRGAWLEYETDAKDVVYVRIDRTRKLPVTVLLRALGFGSDQEILDLIGENEYLRNTLDKDNTENSDKALLEIYERLRPGEPPTVENAKSLLDSRFFDPKRYDLANVGRYKINKKLHIKNRLFNQRLAETLVDPETGEILAEKGQILDRRTLDKVLPYLENGIGFRKLYPNGGVVEDEVTLQSIKIFAPTDQEGEQVINVIGNAYIEEEIKNITPADIISSISYFFNLLHGVGDTDDIDHLGNRRLRSVGELLQNQFRIGLSRMERVVRERMSIQDTNTITPQQLINIRPVIASIKEFFGSSQLSQFMDQTNPLAELTHKRRLSALGPGGLTRERAGMEVRDVHYSHYGRMCPIETPEGPNIGLINSLSSYAKVNRFGFIETPYRRVDPETGKVTGRIDYLTADEEDNYVVAQANARLDDEGAFIDDSIVARFRGENTVVSRNRVDYMDVSPKQVVSAATACIPFLENDDSNRALMGANMQRQAVPLMQPEAPFVGTGMEYVSGKDSGAAVICKHPGIVERVEAKNVWVRRYEEVDGQKVKGNLDKYSLLKFVRSNQGTCYNQRPIVSVGDEVVKGEILADGPSMELGELALGRNVMVGFMTWDGYNYEDAIIMSERLVKDDVYTSIHIEEYESEARDTKLGPEEITRDIPNVGEDALRNLDDRGIIRIGAEVKDGDLLVGKVTPKGVTELTAEERLLHAIFGEKAREVRDTSLRVPHGGGGIIHDVKVFNREDGDELPPGVNQLVRVYIVQKRKISEGDKMAGRHGNKGVISKILPEEDMPYLPDGTPIDIMLNPLGVPSRMNIGQVLELHMGMAARYLGIHIASPVFDGAREEDVWETLEEAGMSRDAKTVLYDGRTGEPFDNRVSVGIMYMIKLAHMVDDKLHARSTGPYSLVTQQPLGGKAQFGGQRFGEMEVWALEAYGAAYTLQEILTVKSDDVVGRVKTYEAIVKGDNVPEPGVPESFKVLIKELQSLGMDVKILSGDEEEIEMRDLEDEEDAKQADGLALSGDEEPEETASADVERDVVTKE
notes: RNAP β subunit, B. subtilis; source: endogenous, B. subtilis; in lysate and purified as part of RNAP
B3: RNAP δ subunit, endogenous (natural protein, B. subtilis (endogenous), UniProt P12464 1-173, looked up)
chain: MGIKQYSQEELKEMALVEIAHELFEEHKKPVPFQELLNEIASLLGVKKEELGDRIAQFYTDLNIDGRFLALSDQTWGLRSWYPYDQLDEETQPTVKAKKKKAKKAVEEDLDLDEFEEIDEDDLDLDEVEEELDLEADDFDEEDLDEDDDDLEIEEDIIDEDDEDYDDEEEEIK
notes: RNAP δ subunit, B. subtilis; NTD residues 1-90, CTR residues 91-173; source: endogenous, B. subtilis MH5636 or LK782; in lysate and purified as part of RNAP
B4: RNAP α subunit (natural protein, B. subtilis (endogenous), UniProt P20429 1-314, looked up)
chain: MIEIEKPKIETVEISDDAKFGKFVVEPLERGYGTTLGNSLRRILLSSLPGAAVTSIQIDGVLHEFSTIEGVVEDVTTIILHIKKLALKIYSDEEKTLEIDVQGEGTVTAADITHDSDVEILNPDLHIATLGENASFRVRLTAQRGRGYTPADANKRDDQPIGVIPIDSIYTPVSRVSYQVENTRVGQVANYDKLTLDVWTDGSTGPKEAIALGSKILTEHLNIFVGLTDEAQHAEIMVEKEEDQKEKVLEMTIEELDLSVRSYNCLKRAGINTVQELANKTEEDMMKVRNLGRKSLEEVKAKLEELGLGLRKDD
notes: RNAP α subunit, B. subtilis; only the N-terminal domains have density in the structures; also called α1; α2; source: endogenous, B. subtilis; in lysate and purified as part of RNAP

Key:
[1] = target: T1, HelD (recombinant B. subtilis NTPase HelD) (Bacillus subtilis (strain 168), UniProt O32215); experiment: analytical SEC with SDS-PAGE
T1 chain: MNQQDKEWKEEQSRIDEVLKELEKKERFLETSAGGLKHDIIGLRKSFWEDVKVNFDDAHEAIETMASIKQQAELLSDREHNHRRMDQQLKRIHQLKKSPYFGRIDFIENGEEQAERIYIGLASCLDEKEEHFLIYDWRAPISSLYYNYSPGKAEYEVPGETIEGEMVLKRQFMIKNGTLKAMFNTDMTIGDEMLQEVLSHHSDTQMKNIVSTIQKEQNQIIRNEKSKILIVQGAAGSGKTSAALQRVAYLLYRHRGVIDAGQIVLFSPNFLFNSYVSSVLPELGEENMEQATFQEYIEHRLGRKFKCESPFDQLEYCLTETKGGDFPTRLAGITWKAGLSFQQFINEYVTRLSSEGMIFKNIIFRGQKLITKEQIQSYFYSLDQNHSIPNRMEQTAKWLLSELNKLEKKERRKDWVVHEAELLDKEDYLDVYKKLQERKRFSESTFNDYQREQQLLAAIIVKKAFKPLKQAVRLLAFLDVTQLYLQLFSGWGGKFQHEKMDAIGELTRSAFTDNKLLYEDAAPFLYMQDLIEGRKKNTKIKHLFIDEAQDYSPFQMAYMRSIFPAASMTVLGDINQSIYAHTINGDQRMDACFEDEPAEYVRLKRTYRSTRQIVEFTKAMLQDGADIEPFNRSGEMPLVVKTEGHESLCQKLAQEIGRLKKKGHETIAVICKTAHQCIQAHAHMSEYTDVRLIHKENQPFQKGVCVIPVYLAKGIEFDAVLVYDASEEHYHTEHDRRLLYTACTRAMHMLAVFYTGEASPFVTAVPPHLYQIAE

[2] = target: T2, RNAP β′ subunit with chromosomally encoded C-terminal His10-tag (B. subtilis, UniProt P37871 1-1199); experiment: co-purification; RNAP captured from lysates of stationary phase B. subtilis by the C-terminal His10-tag on β′ (Ni-NTA), then heparin column and SEC, 4 °C; content of the fractions told from gels (strains MH5636, LK782, LK1032); details: partners not purified
T2 construct: RNAP β′ subunit, B. subtilis; source: B. subtilis strains MH5636, LK782, LK1032; in lysate and purified as part of RNAP (Ni-NTA, heparin, SEC); not shown: His10, C-terminal, kept

[3] = target: T2, RNAP β′ subunit with chromosomally …; experiment: SEC; HelD release assay: the same RNAP-HelD complex mixed with 5 mM Mg^2+-ATPγS, AMPPNP or ATP in buffer I; Superdex 200 Increase PC 3.2, 4 °C; fractions on SDS-PAGE; details: both partners purified

T2 sequence (P37871 whole entry): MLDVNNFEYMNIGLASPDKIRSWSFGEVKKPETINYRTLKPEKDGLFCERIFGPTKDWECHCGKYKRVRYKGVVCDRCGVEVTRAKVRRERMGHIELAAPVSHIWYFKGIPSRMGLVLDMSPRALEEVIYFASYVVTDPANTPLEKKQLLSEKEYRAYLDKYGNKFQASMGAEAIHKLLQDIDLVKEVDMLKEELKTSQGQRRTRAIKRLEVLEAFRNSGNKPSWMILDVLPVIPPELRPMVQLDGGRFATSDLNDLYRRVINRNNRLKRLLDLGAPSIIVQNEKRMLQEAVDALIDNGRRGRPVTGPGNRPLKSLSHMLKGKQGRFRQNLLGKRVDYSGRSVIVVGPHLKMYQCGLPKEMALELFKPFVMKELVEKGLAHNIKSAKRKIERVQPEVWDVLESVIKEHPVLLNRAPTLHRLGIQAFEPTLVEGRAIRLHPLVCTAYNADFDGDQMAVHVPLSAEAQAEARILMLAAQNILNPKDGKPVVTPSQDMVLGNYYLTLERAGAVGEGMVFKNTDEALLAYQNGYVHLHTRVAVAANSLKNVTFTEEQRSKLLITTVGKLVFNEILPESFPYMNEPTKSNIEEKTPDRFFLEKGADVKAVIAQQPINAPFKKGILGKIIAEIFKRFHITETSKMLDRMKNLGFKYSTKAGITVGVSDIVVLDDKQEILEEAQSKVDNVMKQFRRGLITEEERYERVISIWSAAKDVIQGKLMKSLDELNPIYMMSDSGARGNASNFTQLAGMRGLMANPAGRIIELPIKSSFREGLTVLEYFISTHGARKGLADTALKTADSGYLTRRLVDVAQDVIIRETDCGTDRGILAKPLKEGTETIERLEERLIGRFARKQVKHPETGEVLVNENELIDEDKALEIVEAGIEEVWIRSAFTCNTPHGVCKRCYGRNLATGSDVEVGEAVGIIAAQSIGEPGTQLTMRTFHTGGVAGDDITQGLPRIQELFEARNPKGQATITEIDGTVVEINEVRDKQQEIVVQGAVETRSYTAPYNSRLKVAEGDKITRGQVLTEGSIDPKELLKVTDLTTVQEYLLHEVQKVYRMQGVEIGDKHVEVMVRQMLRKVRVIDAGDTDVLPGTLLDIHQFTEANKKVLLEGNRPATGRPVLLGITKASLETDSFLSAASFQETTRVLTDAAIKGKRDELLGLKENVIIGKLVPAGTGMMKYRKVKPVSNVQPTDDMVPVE

Row | Binder | binding result [1] | binding result [2] | binding result [3]
1 | B1 | no binding | – | –
2 | B2 | – | binds | –
3 | B3 | binds | – | binds
4 | B4 | – | binds | –

Reference: article PMC7749165, “The δ subunit and NTPase HelD institute a two-pronged mechanism for RNA polymerase recycling” (Nature Communications, 2020)
